# Measured values from the supplement of paper PMC9170038.
# Test system: K4 kissing-loop RNA reporter
# Assay: apparent KD of K4 kissing-loop reporter; higher = weaker reporter binding
# Settings: Eterna round: R107; input ligand: none
# Protocol: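 RNA-MaP round R107: designed RNA switches with theophylline, tryptophan, arginine or FMN aptamers are transcribed on-chip within common flanks. They are titrated with a labelled K4 kissing-loop RNA reporter in RNA-MaP buffer (100 mM Tris pH 7.5, 80 mM KCl, 4 mM MgCl2), without ligand or with the indicated ligand. Median apparent KD per design.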
# 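Also: bound reporter read as fluorescence of individual clusters on recovered sequencing chips by microscopy, with normalized cluster intensities fitted with a binding model.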
row,Sequence,apparent KD of K4 kissing-loop reporter [nM]
1,UGAUAGGACAGAAGGAGCGGAAGUGAUGUUUCCAAAAGGGUAAGGUGUCAAAAGACACCCUUCCAGGUAGGUCGCUGUCCUAUCU,99
2,CCUAUCUCAUACGAUACCAGUCAAUUAAAACGAGUGAUGUUCGAAAAUUUGCCAUAUAAUGACCCUUGGCAGCGUAUGGGAUAGG [Ex Theophylline B K4 7],194
3,GCCGUAGAUUGAAGGAGCGGCUUCAUCAAAUCUCUUGCCCGCACCAGUGAUGUUGGUGUUAGCCAGGUAGGUCGCAAUCUACGGC,583
4,AAACAUCACUGGGAGUGAUGUUCUCAGUGACGAGGACCGGUACGGCCGCCACUCGCGAGAGAUUUAGUCUAGUAUUGACUGCAUU [Excl Tryptophan A V11],304
5,AGUGAUGUGGGAAGGAGCGGUAUAUGAGUUCAGUGAUGUUGAAGUGAUGCUGUAGUGAUGUGCCAGGUAGGUCGCCUAGAUGUUA [whbob_Ex_Arginine_B_2th165],395
6,GGGCGUAUUCACCGAGUGAUGUUCGGAAGGAAGGAUAUUCAAGAUUGAAGAAGGUCCGGCCCAUCGGCCAUUAAACUUGAAAGGU [theeternabot_sameState_KL_FMN_A_48],139
7,AUUCGUUUAUGUGAUACCAGACUUUGCAGUGAUGUUGCAUUAAUUAUUGAUGAUUAGUUUGUCCCUUGGCAGCACUAUUUAUUUA [JR_SSTheophyB_Sub003],63.8
8,AUGUCUUAUAAACUCAUGGUUUCGACAGAUACCAGCUUCGAGAGGAGCCCUUGGCAGCUGCAUGAGUGAUGUUCAUGUACGAAGA [KL-XTheoA6],516
9,GGUUCCUCAGUGAUGUUGAGGUGACCUCGGCAGGAUAUAGGCAUUACUAGAAGGGCCAAAUGAACCCUGUCCAGCGGCACAGGGA [Arleorbile],331
10,AACCACUCGUUACAUCACUAUCGAGUGGAACGAGGACCGGUACGGCCGCCACUCGAUAAGAUGCAGUGAUGUUGCAUCUAAGAAU [KL-SSTryp-A (BrourdMod)5 #dotplot2 strengthened],183
11,GCCUGAGCACGAAGGAGCGCCGUGACAGGUUACUGCCUUGGGCAGUGAUGUUGCUCAAUCUGGCAGGUAGGUCGCGUGCUCAGGC,162
12,UGUACCGAGUCAGGAUAUAGCGUCGAAAGACGAAAUGGAGUGAUGUUCCUUAAACUGCGAAAGCAGCUAGAAGGGACUUGGUACU [FmnBS 28 #SwitchBubble #StaticStem #DoubleMagnetSystem],246
13,CGCAGUGAUGUUGCGAGUUCAUUCAGGGAAGGAGCGCCACAGAUGGCAGGUAGGUCGCCCACGCAGUGAUGUUGUGUAUUCGGGU [Exclusion Arginine A GF 2],165
14,UACUAUAGUGAUGUUAUAGAUAAACCAGAUACCAGUGUAACAUAACACCCUUGGCAGCUGAUGAGGGAAGUUAUCAAAAGAUAAC [AstroSTH-A#10designED4.80],142
15,UUUUUGGAGAAUUAUAGUGAUGUUAUGAAGGAGGAUAUCUGGAGAUGGAGAAGGCCUAGUGGCUCAGCCCUGGAGGGUGGGUGGG [ExFMNA.aB],705
16,UUACAGGAACAAGGAUAUGGCGUUGUAGUGAUGUUACAGCGAAGAGCUCCACGCGAUCGGACAAAACCAGAAGGUGUAUGGAAUC [theeternabot_exclusion_KL_FMN_B_42],127
17,GGUUGAAGCACCCGGAGUGAUGUUCCGGAUACCAGCAAACCAACUUGCCCUUGGCAGCCGUAUAGCGUCCGGUGGGCCGAGCAUA [Beisadi],97
18,UGACUGGACUGAAGGAGCGCGCGAGACAAAGUCUCGAACUCUUAGUGAUGUUAGGAAAUAACGCAGGUAGGUCGCAGUCUAGUCU,332
19,CGGCGGAGUGAUGUUCUGCUCGCUCCGGAUACCAGCUUCGCCAGAGGCCCUUGGCAGCCGGGCGGCCCAGUGAUGUUGGGUUGCG [Same State Theophylline A GF 17],277
20,AACUCUCAGGCAGCCGAGUGAUGUUCGGCCCGAGGACCGGUACGGCCGCCACUCGGGCCUGAGAGAGGUUAUCAAAGAUAGCCAA [#01 K4 Tryptophan A Same State],89.8
21,GUACAUUGGAAACAAGAACAAAUAACCGAAGGAGCGCGUGAAAACGCAGGUAGGUCGCGGAAGCAGUGAUGUUGCAUUAGAGAUC [Same State Arginine A GF 16],61.1
22,CGGAGUGAUGUUCCUUUUAUUAAUUAUUUACGAGGACCGGUACGGCCGCCACUCGAUUUAGCUUUUAUUUAAUGCUUGGAUGUUU [JR_SSTryptoA_Sub004],140

# Same assay, conditions: Eterna round: R107; input ligand: theophylline 20 uM
row,Sequence,apparent KD of K4 kissing-loop reporter [nM]
1,CGAGUACAUUGCGAUACCAGCGAUAGCAGUUCAACGCGCAGUCCGUUUAGUGAUGUUAGACGCCCUUGGCAGCGCUUCCUGGCAA [theeternabot_exclusion_KL_Theo_B_44],520
2,AUGCCUAUGACGGCCGCCACUGAGAGUCAGUGAUGUUGACUCGAUACAGCUGAUUAGCAGCUAAUCAGGACCGGGUCAUACACAU [Tryp B SS t3],245
3,UAGCGGUAGAGGCCACCGCUAUUCUGAGAAGGAGCGCAGAUGACUGCAGGUAGGUCGCUUAGAGCUUGCAGUGAUGUUGCAAGUU [Tebete],145
4,GGUUUUAACCGCAGUGAUGUUGCGUUGAAACGAGGACCGGUACGGCCGCCACUCGAAAAGAAGCGGCCAAAUUAAAAUCGUAAAG [Exclusion Tryptophan A GF 23],164
5,GCGAAGAGAGAAGGAUAUUAGUAAUGCGUCAUGCGCCCUUACCAGUUAGUGAUGUUAACAAUACAUUAAGAAGGUCUCGGAAUCC [theeternabot_sameState_KL_FMN_B_50],215
6,CUGUAUCAUAUUGAUACCAGAGAAAGAACCAGUGAUGUUGGAAAAGACGAAUAAAUUAUACUCCCUUGGCAGCGGAAAUGAACAG [Totally accidental],105
7,GACGUUGAAGCGGCCGCCACUAGGAAGGGUACGGAGAGUACAUCUCACGGAGAGUGAUGUUCUCAUAGGACCGGGCUCAUAUCAA [theeternabot_sameState_KL_Trp_B_21],238
8,AGUCCACUCUAAAGAGUGGACCUAAGGGAUACCAGUGAUGUUGGUCACCCUUGGCAGCCCUCUGUCAUCGAUAAAGAUGGCAGUA,130
9,AAAAUAAACCAGUGAUGUUGGUGUCCAGAUACCAGCGACGAAAGUCGCCCUUGGCAGCUGUGGACGUACAAAAUAAGUACGUCCU,209
10,UAAUUUAUGUCUUUAAUAUAAUAAUCAGAUACCAGUGAUUUAUGACACCCUUGGCAGCUGUAUAGAGUGAUGUUCUUAUACAUAA [JR_Nu_ExcTheophyA_Sub020],547
11,UGUCAUUGGUCGGCCGCCACUUCGUAUGAAGUGAUGUUUUGUAGAUUGUGUUGAAAGGUAUGGUGAAGGACCGGGACCGAUGACU [FiskerMod 22 - Jieux - Same State - Tryptophan B],203
12,AAGUGUCAUUAGACACACGCAUCUAUAAACUAGGAUAUGCUGAUAAGCAGAAGGAGUGAUGUUCCUUUCAUGAUGCGAAUUAAAU [#07 K4 FMN A Exclusion],135
13,GUCCAACCUGGAGGAUAUCUGCUGUCCAGUGAUGUUGGACACCUUAGUAAAGGCCGGGUAGCCCGCAGAGAAGGCCGGAGUUGCC [Isateron],390
14,AAGUGUGUGGCGGCCGCCACUAGAAUCCAGUGAUGUUGGAGAUAUCACGUAAGUGAUAUCCAUCAUAGGACCGGGCCAUAUAGAA [Same State - Tryptophan B (Freestyle 18)],1280
15,GACAGUCGGUGUUAAUGACAGUUACGCGAUACCAGCGAAACAGUACGCCCUUGGCAGCGCAGUGAUGUUGCGCGCCUAGUGUGGU [Esbiceve],92.5
16,UUACUACCCAGUGAUGUUGGGUAGCGGCGGCGAGGACCGGUACGGCCGCCACUCGGCGCACGGGAGUGAUGUUCCUAAGAAUAAA [Same State Tryptophan A GF 9],350

row,Sequence,apparent KD of K4 kissing-loop reporter [nM]
1,AAUAACUUGCAGUGAUGUUGCAAGAAAUCUCAGGAUAUCAGGAAACUGAGAAGGGAGUAUCCUGAGUAAACAUCACAUCUUAGGA [KL-SSFMN-A8],376
2,AGUGAUGUUGUGUUAUCUUAGUGAAGUGAUCGAGGACCGGUACGGCCGCCACUCGAGUGAUGAGUGAGUGAUGUUUGUUUAGGGA [vvbmullin],931
3,UGUCAUGGAAACAUGAACGUUAAAAUAAAUCGAGGACCGGUACGGCCGCCACUCGUAUAGCGGUCAGUGAUGUUGACUGUAGUAC [KL-SSTryp-A form2 sub11 #dotplot2>1],109
4,UUGUUUUACUGAAGGAGCGGCAAUUGAUACGUAGAUAUAGUGAUGUUAUAUAAGAUAGAGAGCCAGGUAGGUCGCAGAUGUGUUU [ExArgB.T],204
5,UGAUACCAGACGGCCGCCACUCCCGUAAGUCAAAGACUUACCAAGAGUAUCGUCCAGUGAUGUUGGAGGACCGGGUCUGGUAUCU [FiskerMod 9 - Jieux - Exclusion - Tryptophan B],320
6,UGAUAGGACAGAAGGAGCGGAAGUGAUGUUUCCAAAAGGGUAAGGUGUCAAAAGACACCCUUCCAGGUAGGUCGCUGUCCUAUCU,111
7,CCUAUCUCAUACGAUACCAGUCAAUUAAAACGAGUGAUGUUCGAAAAUUUGCCAUAUAAUGACCCUUGGCAGCGUAUGGGAUAGG [Ex Theophylline B K4 7],197
8,GCCGUAGAUUGAAGGAGCGGCUUCAUCAAAUCUCUUGCCCGCACCAGUGAUGUUGGUGUUAGCCAGGUAGGUCGCAAUCUACGGC,493
9,AAACAUCACUGGGAGUGAUGUUCUCAGUGACGAGGACCGGUACGGCCGCCACUCGCGAGAGAUUUAGUCUAGUAUUGACUGCAUU [Excl Tryptophan A V11],353
10,AGUGAUGUGGGAAGGAGCGGUAUAUGAGUUCAGUGAUGUUGAAGUGAUGCUGUAGUGAUGUGCCAGGUAGGUCGCCUAGAUGUUA [whbob_Ex_Arginine_B_2th165],194
11,GGGCGUAUUCACCGAGUGAUGUUCGGAAGGAAGGAUAUUCAAGAUUGAAGAAGGUCCGGCCCAUCGGCCAUUAAACUUGAAAGGU [theeternabot_sameState_KL_FMN_A_48],162
12,AUUCGUUUAUGUGAUACCAGACUUUGCAGUGAUGUUGCAUUAAUUAUUGAUGAUUAGUUUGUCCCUUGGCAGCACUAUUUAUUUA [JR_SSTheophyB_Sub003],104
13,AUGUCUUAUAAACUCAUGGUUUCGACAGAUACCAGCUUCGAGAGGAGCCCUUGGCAGCUGCAUGAGUGAUGUUCAUGUACGAAGA [KL-XTheoA6],315
14,GGUUCCUCAGUGAUGUUGAGGUGACCUCGGCAGGAUAUAGGCAUUACUAGAAGGGCCAAAUGAACCCUGUCCAGCGGCACAGGGA [Arleorbile],298
15,AACCACUCGUUACAUCACUAUCGAGUGGAACGAGGACCGGUACGGCCGCCACUCGAUAAGAUGCAGUGAUGUUGCAUCUAAGAAU [KL-SSTryp-A (BrourdMod)5 #dotplot2 strengthened],192
16,GCCUGAGCACGAAGGAGCGCCGUGACAGGUUACUGCCUUGGGCAGUGAUGUUGCUCAAUCUGGCAGGUAGGUCGCGUGCUCAGGC,131
